Measurements as given in PMC11700871 (Theranostics, 2025).
Read-outs that look alike come from different tables or passages of the source. Where a SMILES comes first, the peptide text is derived from it. The star is where a group is joined. X1 = O=C(O)c1cc(N*)ccc1O

Experiments:
LO-2 cells [1] = assay: Expression of Cat-B and CHOP in hepatocytes after drug exposure; format: cell-based, human; settings: LO-2 cells after treatment with APAP
Text: We initially investigated the changes within human hepatocytes in response to drug exposure.

APAP-induced ALF model = assay: Therapeutic efficacy in APAP-induced ALF mouse model; format: in vivo, C57BL/6 mice; settings: ALF mice
Procedure: The in vivo therapeutic efficacy of SPNs was evaluated in an APAP-induced ALF model.
Following 24 h of treatment, liver tissue was collected from the mice and then stained with H&E, fluorescent dye-conjugated antibodies (TNF-α, 506303, Biolegend; IL-6, 504503, Biolegend; and IL-10, 505005, Biolegend) or TUNEL (G3250, Promega). A portion of the liver tissues was dispersed in lysis buffer and subsequently centrifuged to remove debris, followed by western blot for MAPK and assessment of cytokines, such as TNF-α, IL-6, IL-1β and IL-10, via ELISA assays. Hematological parameters were analyzed by KNOTUS (Incheon, Republic of Korea).

Cat-E = biological target: T1, Cat-E (Homo sapiens, UniProt P14091); assay: Enzyme-specific cleavage by HPLC, Cat-E; format: in vitro ADME; settings: 24 h, pH 5.5 MES buffer, 37°C
T1 construct: purchased R&D systems 1294-AS
T1 sequence (P14091 54-396): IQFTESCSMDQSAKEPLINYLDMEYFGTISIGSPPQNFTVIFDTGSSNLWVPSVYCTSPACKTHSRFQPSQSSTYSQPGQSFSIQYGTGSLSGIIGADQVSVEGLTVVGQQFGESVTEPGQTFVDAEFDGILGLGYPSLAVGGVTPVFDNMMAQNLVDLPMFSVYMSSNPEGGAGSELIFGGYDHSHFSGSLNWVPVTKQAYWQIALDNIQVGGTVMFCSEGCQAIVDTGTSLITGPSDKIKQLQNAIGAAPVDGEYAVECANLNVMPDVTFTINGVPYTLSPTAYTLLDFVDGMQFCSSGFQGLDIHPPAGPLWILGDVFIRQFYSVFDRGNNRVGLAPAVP
Procedure: (§1) After a 30 min reaction, the final product was purified and analyzed using an LC/MS system (Agilent 1200 Series HPLC system). The hydrodynamic size and zeta potential were analyzed by using a Zetasizer (Nano ZS, Malvern Instruments, Worcestershire, UK). The morphology of SPNs in distilled water was observed using transmission electron microscopy (CM-200, Philips, USA). The target enzyme-specific cleavage was evaluated through HPLC analysis after incubation with Cat-B (953CY, R&D systems, MN, USA), Cat-E (1294-AS, R&D systems), Cat-D (1014-AS, R&D systems), Cat-L (952-CY, R&D systems), MMP-9 (911-MP, R&D systems) or Cas-3 (707-C3/CF, R&D systems) in pH 5.5 2-(N-morpholino)ethane sulfonic acid (MES) buffer at 37°C.

normal C57BL/6 mice = settings: mouse, in vivo
Procedure: The body weight was measured every two days. Seven days after treatment, the hematological parameters were assessed, including AST, ALT, BUN, creatinine, LDH, CK, red blood cell (RBC), hemoglobin (HGB), hematocrit (HCT), platelet (PLT), white blood cell (WBC), neutrophil (NEU) and lymphocyte (LYM). Major organs were collected from the mice and then observed using optical microscopy after H&E staining (BX 51, Olympus, USA). The levels of TNF-α, IL-1β and IL-6 in homogenized kidney tissues were quantified via ELISA assays.

Cat-B = biological target: T2, Cat-B (Homo sapiens, UniProt P07858); assay: Enzyme-specific cleavage by HPLC, Cat-B; format: in vitro ADME; settings: 1 h, pH 5.5 MES buffer, 37°C, HPLC and LC/MS
T2 construct: purchased R&D systems 953CY
Procedure: as §1

MIHA cells = assay: Cytotoxicity assay (CCK-8), MIHA; format: cell-based, human; settings: 0 to 20 mM, 24 h, compared with mesalamine
LO-2 cells [2] = assay: Cytotoxicity assay (CCK-8), LO-2; format: cell-based, human; settings: 0 to 20 mM, 24 h, compared with mesalamine
[3] = biological target: T3, matrix metalloproteinase 9 (MMP-9) (Homo sapiens, UniProt P14780); assay: Enzyme-specific cleavage by HPLC, MMP-9; format: in vitro ADME; settings: 24 h, pH 5.5 MES buffer, 37°C
T3 construct: purchased R&D systems 911-MP
T3 sequence (P14780 94-707): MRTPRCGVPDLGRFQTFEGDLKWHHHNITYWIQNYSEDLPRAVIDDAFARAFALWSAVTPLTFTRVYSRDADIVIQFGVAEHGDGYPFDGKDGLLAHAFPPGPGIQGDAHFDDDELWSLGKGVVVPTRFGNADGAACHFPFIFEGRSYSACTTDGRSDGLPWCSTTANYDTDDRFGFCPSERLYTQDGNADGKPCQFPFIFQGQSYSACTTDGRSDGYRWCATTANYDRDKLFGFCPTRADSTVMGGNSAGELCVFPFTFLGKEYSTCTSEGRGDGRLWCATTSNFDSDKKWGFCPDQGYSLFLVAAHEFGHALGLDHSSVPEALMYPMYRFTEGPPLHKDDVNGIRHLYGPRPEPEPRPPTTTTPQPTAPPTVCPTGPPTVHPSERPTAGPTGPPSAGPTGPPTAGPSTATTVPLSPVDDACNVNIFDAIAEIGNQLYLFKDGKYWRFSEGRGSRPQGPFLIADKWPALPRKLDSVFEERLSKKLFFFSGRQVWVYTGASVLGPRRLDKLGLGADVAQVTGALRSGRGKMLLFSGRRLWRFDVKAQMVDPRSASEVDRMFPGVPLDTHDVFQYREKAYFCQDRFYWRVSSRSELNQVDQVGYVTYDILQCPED
Procedure: as §1

Cat-D = biological target: T4, Cat-D (Homo sapiens, UniProt P07339); assay: Enzyme-specific cleavage by HPLC, Cat-D; format: in vitro ADME; settings: 24 h, pH 5.5 MES buffer, 37°C
T4 construct: purchased R&D systems 1014-AS
T4 sequence (P07339 65-412): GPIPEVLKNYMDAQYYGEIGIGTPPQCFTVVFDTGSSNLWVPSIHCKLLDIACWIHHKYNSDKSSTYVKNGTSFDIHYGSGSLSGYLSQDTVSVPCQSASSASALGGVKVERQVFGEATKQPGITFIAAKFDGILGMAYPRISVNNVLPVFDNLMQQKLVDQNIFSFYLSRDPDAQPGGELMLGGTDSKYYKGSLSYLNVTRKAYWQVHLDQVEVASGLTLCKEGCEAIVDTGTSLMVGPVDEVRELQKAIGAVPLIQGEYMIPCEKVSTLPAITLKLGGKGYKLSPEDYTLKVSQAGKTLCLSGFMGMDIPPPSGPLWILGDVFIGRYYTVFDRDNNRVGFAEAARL
Procedure: as §1

Caspase 3 (Cas-3) = biological target: T5, Caspase 3 (Cas-3) (Homo sapiens, UniProt P42574); assay: Enzyme-specific cleavage by HPLC, Caspase 3; format: in vitro ADME; settings: 24 h, pH 5.5 MES buffer, 37°C
T5 construct: purchased R&D systems 707-C3/CF
T5 sequence (P42574 29-175 limits assumed): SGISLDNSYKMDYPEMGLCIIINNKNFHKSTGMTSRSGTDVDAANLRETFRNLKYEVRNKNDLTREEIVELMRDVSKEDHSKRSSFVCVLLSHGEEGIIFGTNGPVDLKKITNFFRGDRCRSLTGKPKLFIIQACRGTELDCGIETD
T5 sequence (P42574 176-277 limits assumed): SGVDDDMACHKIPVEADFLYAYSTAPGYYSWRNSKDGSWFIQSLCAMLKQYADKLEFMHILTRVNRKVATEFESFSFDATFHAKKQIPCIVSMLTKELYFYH
Procedure: as §1

healthy LO-2 cells [4] = tested on: healthy LO-2 cells
Procedure: (§2) The cells were then washed with DPBS and dispersed in lysis buffer, followed by centrifugation at 12,000 rpm for 30 min to remove cell debris. Subsequently, the proteins were quantified using a BCA assay kit (23221, Thermo Fisher Scientific), boiled after mixing with sodium dodecyl sulfate loading buffer (NaraBio, Gyeonggi-do, Republic of Korea) for 5 min, and separated by 10% SDS polyacrylamide gel electrophoresis. […] HMGB1 and HSP70 were analyzed in the supernatants after incubating LO-2 cells using the same protocol described above. Finally, the membranes were incubated with goat anti-rabbit immunoglobulin-HRP antibody for 2 h.

Cat-L = biological target: T6, Cat-L (Homo sapiens, UniProt P07711); assay: Enzyme-specific cleavage by HPLC, Cat-L; format: in vitro ADME; settings: 24 h, pH 5.5 MES buffer, 37°C
T6 construct: purchased R&D systems 952-CY
T6 sequence (P07711 114-333): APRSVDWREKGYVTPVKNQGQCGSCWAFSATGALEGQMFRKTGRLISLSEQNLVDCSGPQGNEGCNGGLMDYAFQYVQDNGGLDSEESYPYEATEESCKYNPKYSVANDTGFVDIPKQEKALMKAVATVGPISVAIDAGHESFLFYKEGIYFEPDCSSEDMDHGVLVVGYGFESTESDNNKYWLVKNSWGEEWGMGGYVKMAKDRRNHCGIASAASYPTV
Procedure: as §1

HepG2 cells = assay: Cytotoxicity assay (CCK-8), HepG2; format: cell-based; settings: 0 to 20 mM, 24 h, compared with mesalamine
[5] = Biodistribution by NIRF imaging in naive and ALF mice; format: in vivo, C57BL/6 mice; settings: ALF mice, intravenous
Procedure: The in vivo behavior of SPNs was assessed in healthy mice and APAP-induced ALF models. […] Fluorescence intensity in the images was quantified using LivingImage software. Ex vivo NIRF imaging was conducted with major organs collected from the mice 9 h post-treatment.

healthy LO-2 cells [6] = assay: Release of DAMPs (HMGB1, HSP70) from healthy hepatocytes; settings: supernatants, western blot
Procedure: as §2

**Q.** For CC(=O)Nc1ccc(O)cc1 [APAP, acetaminophen], which “Cat-B level compared to the naive cells” value (LO-2 cells [1]) is on record?
**A.** 4.22 fold

**Q.** And the “increase in C/EBP homologous protein (CHOP) compared to the naive cells” value (LO-2 cells [1])?
**A.** 1.58 fold

**Q.** With CC(=O)N[C@@H](CS)C(=O)O [NAC, N-acetylcysteine] as the compound, how does the “effects in preventing body weight loss and histohematological changes” value (APAP-induced ALF model; NAC 100 mg/kg i.v., compared with SPNs) read?
**A.** limited effects

**Q.** With CC(=O)N[C@@H](Cc1ccccc1)C(=O)N[C@@H](CCCNC(=N)N)C(=O)N[C@@H](CCCNC(=N)N)C(=O)NCC(=O)Nc1ccc(O)c(C(=O)O)c1 [SPNs] (Ac-FRRG-X1) as the compound, how does the “cleavage upon incubation with Cat-E” value (Cat-E) read?
**A.** no detectable cleavage

**Q.** And the “histopathological toxicities in major organs” value (normal C57BL/6 mice)?
**A.** not observed

**Q.** What about the “cleavage upon incubation with Cat-B” value (Cat-B) of the same compound?
**A.** completely decomposed into mesalamine

**Q.** And the “toxicity to MIHA cells (cell viability)” value (MIHA cells)?
**A.** significantly minimized the toxicity of mesalamine

**Q.** And the “toxicity to LO-2 cells (cell viability)” value (LO-2 cells [2])?
**A.** significantly minimized the toxicity of mesalamine

**Q.** And the “cleavage upon incubation with MMP-9” value [3]?
**A.** no detectable cleavage

**Q.** What about the “cleavage upon incubation with Cat-D” value (Cat-D) of the same compound?
**A.** no detectable cleavage

**Q.** What about the “cleavage upon incubation with Cas-3” value (Caspase 3 (Cas-3)) of the same compound?
**A.** no detectable cleavage

**Q.** And the “release of DAMPs (HMGB1 and HSP70)” value (healthy LO-2 cells [4])?
**A.** did not increase DAMP release

**Q.** What about the “cleavage upon incubation with Cat-L” value (Cat-L) of the same compound?
**A.** no detectable cleavage

**Q.** What about the “toxicity to HepG2 cells (cell viability)” value (HepG2 cells) of the same compound?
**A.** significantly minimized the toxicity of mesalamine

**Q.** With CCN1\C(=C/C=C/C=C/C2=[N+](CCCCCC(=O)O)c3ccc4c(S(=O)(=O)O)cc(S(=O)(=O)O)cc4c3C2(C)C)C(C)(C)c2c1ccc1c(S(=O)(=O)[O-])cc(S(=O)(=O)O)cc21 [free Cy5.5] as the compound, how does the “in vivo clearance (NIRF imaging)” value [5] read?
**A.** rapid in vivo clearance

**Q.** Which “histopathological toxicities in major organs” value (normal C57BL/6 mice) does the source give for Nc1ccc(O)c(C(=O)O)c1 [mesalamine] here?
**A.** substantial structural abnormalities and damaged areas in major organs

**Q.** And the “release of DAMPs (HMGB1 and HSP70)” value (healthy LO-2 cells [6])?
**A.** significantly higher levels

**Q.** What about the body weight change (APAP-induced ALF model; 24 h of treatment, mesalamine or SPNs 5 mg/kg mesalamine content i.v.) of the same compound?
**A.** even more severe weight loss relative to the PBS group

**Q.** What about the “AST and ALT levels” value (APAP-induced ALF model; 24 h post-treatment, 5 mg/kg mesalamine content i.v.) of the same compound?
**A.** higher levels of these parameters compared to the PBS group
